Laboratory results from publication PMC7338481.

Target: Staphylococcal enterotoxin G, wild type (Staphylococcus aureus (staphylococcal)) (UniProt P0A0L8)
Test: SPR

With Soluble mouse TCR β chain Vβ8.2 protein the Kd was 370 nM.
